This test addresses peptide encoding HTP-3 closure motif #4 (C. elegans). Nature of the test: fluorescence polarisation.

Our source for the Kd values is article doi:10.1101/2022.05.31.494220.

The term Kd denotes a measure of binding affinity in units of concentration. Low readings indicate tighter binding, high ones weaker binding.

B1: HIM-3 (wildtype) (natural protein)
chain: ATKEQIVEHRESEIPIASQWKATFPVDLEIEKNSEMFALRYIKCASAFILDRRGILDEKCFKTRTIDKLLVTAFQSSVPAAKRVSSTFDGLRDAIQQGYLREFAIVFYKKPNEEDINEVFAFRFAYGDEGEIFVSLNNGIDTNESSQELLQAKFVDTDNTKQMFASTIKKLHRCIKKMEPLPQGSDASFRVSYTEKAPKDYTPEGYLLSPMFYTLNQDIRKASIGIVCGGHHKIQMLAASQYLKQDFDLDKTTTLNPNMSIMANQSKRKGRISRDSPYGLSQGITKKNKD
Regarding B1, the Kd was 220 nM.

B2: HIM-3^R93Y (natural protein)
chain: ATKEQIVEHRESEIPIASQWKATFPVDLEIEKNSEMFALRYIKCASAFILDRRGILDEKCFKTRTIDKLLVTAFQSSVPAAKRVSSTFDGLYDAIQQGYLREFAIVFYKKPNEEDINEVFAFRFAYGDEGEIFVSLNNGIDTNESSQELLQAKFVDTDNTKQMFASTIKKLHRCIKKMEPLPQGSDASFRVSYTEKAPKDYTPEGYLLSPMFYTLNQDIRKASIGIVCGGHHKIQMLAASQYLKQDFDLDKTTTLNPNMSIMANQSKRKGRISRDSPYGLSQGITKKNKD
In turn, B2 displayed a dissociation constant (Kd) of 690 nM.
